The results in this text go back to PMC12822413, “TSHR‐Targeting Nucleic Acid Aptamer Treats Graves' Ophthalmopathy via Novel Allosteric Inhibition” (Advanced Science, 2025).

In this experiment the target is T1, thyrotropin receptor (TSHR), wild type, on HEK293T cells stably expressing it (TSHR-293T) (human, UniProt P16473-1).
T1 construct: human thyrotropin receptor, cDNA from GeneCopoeia (NM_000369.4) cloned into pLVX-Puro; also called TSHR-293T cells; source: HEK293T, lentiviral transduction (pLVX-Puro), puromycin selected, on cells
The experiment in a line: flow cytometry on cells; competitive binding assay of M22 and the DNA aptamer YC3 on TSHR-293T cells; each in excess against the other. To be noted: one partner purified.

B1: Human monoclonal autoantibody to the TSHR (M22) (antibody, V domains shown)
VH: QVQLVQSGAEVKKPGESLKISCRGSGYRFTSYWINWVRQLPGKGLEWMGRIDPTDSYTNYSPSFKGHVTVSADKSINTAYLQWSSLKASDTGMYYCARLEPGYSSTWSVNWGQGTLVTVS
VL: LTVLTQPPSVSGAPRQRVTISCSGNSSNIGNNAVNWYQQLPGKAPKLLIYYDDQLPSGVSDRFSGSRSGTSASLAIRGLQSEDEADYYCTSWDDSLDSQLFGGGTRLTVL
notes: also called human TSAb; source: bought: RSR (Cardiff, UK)
With B1, the binding result was “binds”.
